B1: Twister Ribozyme (parent)
chain: AACACUGCCAAUGCCGGUCCCAAGCCCGGAUAAAAGUGGAGGGGGCGG

Variants of: B1
Assay: self-cleavage, relative activity (ratio to wild type); higher = more cleavage; co-transcriptional

First: C19A C25A
Second: C19A C25G
The self-cleavage of the first is higher: 0.0869 for the first, 0.0863 for the second.

Going from U18C G42C to G17A U18A, the self-cleavage rises from 0.114 to 0.18.

First: G17A U18G
Second: G17A U18C
The self-cleavage of the first is lower: 0.123 for the first, 0.221 for the second.

Going from C19G A35G to U18G G36C, the self-cleavage falls from 0.0996 to 0.0571.

Compared with U18G G36A, U18G A23U is lower in self-cleavage: 0.0894 for the first, 0.0485 for the second.

First: U18C G45C
Second: U18C G45A
The self-cleavage of the first is lower: 0.132 for the first, 0.48 for the second.

Compared with G17U G47A, G17C A34C is lower in self-cleavage: 0.237 for the first, 0.0523 for the second.

First: G17C C46G
Second: G17C C46U
The self-cleavage of the first is lower: 0.139 for the first, 0.144 for the second.

Going from U18C A23G to U18C A23C, the self-cleavage rises from 0.157 to 0.506.

First: U18C A23U
Second: U18C C25A
The self-cleavage of the first is higher: 0.242 for the first, 0.105 for the second.

First: C19G C46A
Second: U18A G45U
The self-cleavage of the first is lower: 0.18 for the first, 0.272 for the second.

Compared with C19A A30U, C19A A30G is higher in self-cleavage: 0.349 for the first, 0.444 for the second.

First: G17U A32U
Second: G17U A32G
The self-cleavage of the first is lower: 0.294 for the first, 0.345 for the second.

First: G17U A32C
Second: G17U A23U
The self-cleavage of the first is higher: 0.263 for the first, 0.159 for the second.

First: G17U A23C
Second: G17U A23G
The self-cleavage of the first is lower: 0.0677 for the first, 0.0937 for the second.

Going from U18G C25U to U18G C25G, the self-cleavage falls from 0.085 to 0.0608.

First: U18G C25A
Second: G17C A30G
The self-cleavage of the first is higher: 0.138 for the first, 0.0984 for the second.

Going from G17C A30C to G17C A30U, the self-cleavage rises from 0.101 to 0.143.

First: U18C A35U
Second: U18A C19A
The self-cleavage of the first is higher: 0.665 for the first, 0.0671 for the second.

Going from G17C G44U to G17C G47U, the self-cleavage falls from 0.124 to 0.0863.

Going from U18A U31G to U18A U31C, the self-cleavage falls from 0.644 to 0.568.

First: G17C G38C
Second: G17C G38A
The self-cleavage of the first is lower: 0.054 for the first, 0.0789 for the second.

Going from G17C G42C to G17C G42A, the self-cleavage falls from 0.11 to 0.0674.

First: G17U A34U
Second: U18C G24C
The self-cleavage of the first is higher: 0.159 for the first, 0.0613 for the second.

First: U18C G24U
Second: G17C A35C
The self-cleavage of the first is lower: 0.079 for the first, 0.0982 for the second.

First: G17C A35G
Second: U18C G48C
The self-cleavage of the first is lower: 0.0629 for the first, 0.562 for the second.

First: U18C G48U
Second: U18C G48A
The self-cleavage of the first is higher: 0.496 for the first, 0.368 for the second.

Compared with U18G C46A, G17C A33C is higher in self-cleavage: 0.0573 for the first, 0.0741 for the second.

Compared with G17C C27A, U18A G47A is higher in self-cleavage: 0.0647 for the first, 0.201 for the second.

Going from U18A G47C to G17U G36C, the self-cleavage falls from 0.164 to 0.14.

First: G17U G36U
Second: C19G A32G
The self-cleavage of the first is lower: 0.0806 for the first, 0.267 for the second.

Going from U18G A34U to U18G A34C, the self-cleavage rises from 0.0388 to 0.0636.

Going from C19G A33C to G17C, the self-cleavage rises from 0.0963 to 0.153.

Compared with G17U, G17U G38U is lower in self-cleavage: 0.497 for the first, 0.158 for the second.

Compared with G17U U31C, C19A A34U is lower in self-cleavage: 0.495 for the first, 0.116 for the second.

First: G17C A40G
Second: U18C G38C
The self-cleavage of the first is lower: 0.0717 for the first, 0.523 for the second.

Going from U18C G38A to C19A A40U, the self-cleavage falls from 0.371 to 0.16.

Compared with C19A A40C, U18C U37A is higher in self-cleavage: 0.148 for the first, 0.197 for the second.

First: U18A A33C
Second: G17C G43U
The self-cleavage of the first is higher: 0.247 for the first, 0.0878 for the second.

First: G17C G43A
Second: G17U C25G
The self-cleavage of the first is higher: 0.0872 for the first, 0.0862 for the second.

Going from G17U C25A to U18G G24A, the self-cleavage falls from 0.0904 to 0.0714.

Compared with U18G G24C, U18C A32G is higher in self-cleavage: 0.117 for the first, 0.664 for the second.

Compared with U18C A32C, U18C G43U is lower in self-cleavage: 0.486 for the first, 0.111 for the second.

Going from U18C G43C to U18C G43A, the self-cleavage rises from 0.121 to 0.188.

First: C19G G28C
Second: U18A A22U
The self-cleavage of the first is lower: 0.108 for the first, 0.17 for the second.

Compared with U18G A33U, U18A A34U is higher in self-cleavage: 0.0323 for the first, 0.0942 for the second.

Going from U18A A34G to G17A U31G, the self-cleavage rises from 0.171 to 0.706.

Compared with C19A G47A, C19A G47C is higher in self-cleavage: 0.139 for the first, 0.155 for the second.

Compared with U18C C19A, G17C G29C is higher in self-cleavage: 0.0644 for the first, 0.0728 for the second.

Going from C19A A33C to C19A A33U, the self-cleavage rises from 0.0946 to 0.148.

Going from U18G G47U to U18G G47A, the self-cleavage rises from 0.0478 to 0.0493.

Compared with U18C G41A, C19A G48U is higher in self-cleavage: 0.137 for the first, 0.206 for the second.

First: U18A C46G
Second: U18A C46U
The self-cleavage of the first is lower: 0.475 for the first, 0.617 for the second.

Compared with U18A C46A, C19A G42A is lower in self-cleavage: 0.252 for the first, 0.135 for the second.

First: C19A G42U
Second: C19A G42C
The self-cleavage of the first is lower: 0.103 for the first, 0.197 for the second.

First: C19G G36C
Second: C19G G36A
The self-cleavage of the first is higher: 0.118 for the first, 0.101 for the second.

Going from G17C C21G to G17C C21U, the self-cleavage falls from 0.0972 to 0.0868.

First: C19G G45A
Second: G17A G48U
The self-cleavage of the first is lower: 0.321 for the first, 0.603 for the second.

Compared with G17A G48C, C19A G29A is lower in self-cleavage: 0.724 for the first, 0.27 for the second.

First: G17A G45U
Second: G17A G45A
The self-cleavage of the first is lower: 0.147 for the first, 0.386 for the second.

Compared with U18A G41A, G17U A35U is higher in self-cleavage: 0.101 for the first, 0.372 for the second.

First: U18G A32G
Second: U18G G48U
The self-cleavage of the first is lower: 0.0643 for the first, 0.117 for the second.

First: G17U A40U
Second: G17U C21A
The self-cleavage of the first is higher: 0.145 for the first, 0.0909 for the second.

Compared with G17U C21G, G17C G36U is lower in self-cleavage: 0.064 for the first, 0.0484 for the second.

Compared with G17C G36C, U18C G44A is higher in self-cleavage: 0.0812 for the first, 0.714 for the second.

Compared with G17U A30C, G17U A30U is higher in self-cleavage: 0.147 for the first, 0.485 for the second.

Going from U18C G29A to C19G A22G, the self-cleavage falls from 0.275 to 0.0844.

First: U18G A22U
Second: U18G A22G
The self-cleavage of the first is higher: 0.0775 for the first, 0.0592 for the second.

Compared with C19G A23C, C19G A23G is lower in self-cleavage: 0.0786 for the first, 0.0717 for the second.

Compared with C19A G36A, C19A G39A is higher in self-cleavage: 0.102 for the first, 0.136 for the second.

First: C19A G39C
Second: U18C A22G
The self-cleavage of the first is higher: 0.126 for the first, 0.0724 for the second.

Going from C19G G48U to C19G G48C, the self-cleavage rises from 0.218 to 0.23.

Compared with C19A G38A, C19A G38U is lower in self-cleavage: 0.132 for the first, 0.12 for the second.

Going from G17U C26A to U18C A30G, the self-cleavage falls from 0.719 to 0.713.

First: U18C A30C
Second: U18A A35U
The self-cleavage of the first is lower: 0.0938 for the first, 0.624 for the second.

Going from U18A A35G to U18A A35C, the self-cleavage rises from 0.123 to 0.445.

First: C19G C20U
Second: C19G C20A
The self-cleavage of the first is higher: 0.117 for the first, 0.0695 for the second.

Going from U18C C20G to U18C C20A, the self-cleavage falls from 0.102 to 0.0953.

Compared with U18A A40G, G17U G39U is higher in self-cleavage: 0.0784 for the first, 0.108 for the second.

First: G17U G39C
Second: U18G C26G
The self-cleavage of the first is higher: 0.0939 for the first, 0.0643 for the second.

Going from C19A G24U to C19A G24A, the self-cleavage rises from 0.0798 to 0.0849.

Going from C19A A22C to C19A A22U, the self-cleavage falls from 0.127 to 0.11.

Compared with U18C A33U, U18C A33G is lower in self-cleavage: 0.542 for the first, 0.503 for the second.

Variant C19A C27G has a self-cleavage of 0.073.
